The source of these data is IntAct's records for PubMed 15205937.

The labels stand for the following.
B1: Cysteine and glycine-rich protein 3 (Homo sapiens), P50461 (parent)
chain: MPNWGGGAKCGACEKTVYHAEEIQCNGRSFHKTCFHCMACRKALDSTTVAAHESEIYCKVCYGRRYGPKGIGYGQGAGCLSTDTGEHLGLQFQQSPKPARSVTTSNPSKFTAKFGESEKCPRCGKSVYAAEKVMGGGKPWHKTCFRCAICGKSLESTNVTDKDGELYCKVCYAKNFGPTGIGFGGLTQQVEKKE

In one assay the parent is B1. The settings on record: with nrap_human NRAP.
Take C58G: the “effect of a mutation on the interaction” value is on record as “disrupting interaction”.

Another assay covers variants of B1. The following applies: with nrap_human NRAP. The source holds these as a separate data set.
Regarding C58G, the “effect of a mutation on the interaction” value is “decreasing interaction”.

Variants of B1 are the subject of the next assay. The settings on record: with actn2_human ACTN2, P35609.
Chain of actn2_human ACTN2, P35609 (P35609 whole entry): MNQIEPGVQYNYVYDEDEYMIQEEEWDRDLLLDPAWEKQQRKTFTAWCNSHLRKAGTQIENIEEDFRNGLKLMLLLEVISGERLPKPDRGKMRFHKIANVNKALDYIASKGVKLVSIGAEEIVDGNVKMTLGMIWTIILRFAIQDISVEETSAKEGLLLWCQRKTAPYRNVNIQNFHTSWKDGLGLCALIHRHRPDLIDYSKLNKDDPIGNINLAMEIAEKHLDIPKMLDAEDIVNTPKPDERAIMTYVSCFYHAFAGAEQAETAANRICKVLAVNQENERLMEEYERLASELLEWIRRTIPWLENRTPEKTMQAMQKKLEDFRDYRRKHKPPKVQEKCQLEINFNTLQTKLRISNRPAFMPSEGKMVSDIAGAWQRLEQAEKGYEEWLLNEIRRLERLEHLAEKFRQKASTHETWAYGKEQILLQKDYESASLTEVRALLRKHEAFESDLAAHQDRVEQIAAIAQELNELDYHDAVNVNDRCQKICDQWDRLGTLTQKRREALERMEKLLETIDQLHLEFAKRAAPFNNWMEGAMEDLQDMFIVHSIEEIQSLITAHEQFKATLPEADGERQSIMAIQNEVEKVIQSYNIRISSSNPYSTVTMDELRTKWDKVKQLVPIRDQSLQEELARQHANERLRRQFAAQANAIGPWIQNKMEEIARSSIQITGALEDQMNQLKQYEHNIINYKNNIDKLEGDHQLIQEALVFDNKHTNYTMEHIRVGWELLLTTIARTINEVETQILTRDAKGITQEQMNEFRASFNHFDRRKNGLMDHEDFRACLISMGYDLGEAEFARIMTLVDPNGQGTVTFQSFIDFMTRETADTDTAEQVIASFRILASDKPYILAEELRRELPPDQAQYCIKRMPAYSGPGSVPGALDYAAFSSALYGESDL
As to C58G, the “effect of a mutation on the interaction” value is “decreasing interaction”.
